Experimental data as given in patent US8574569B2, “Stabilized protease composition” (Trobio AB, priority 2005, dated 2013).

T1: trypsin (Bos taurus, UniProt P00760)
T1 construct: 100 μg/ml of trypsin (TPCK-treated, Sigma-Aldrich); purchased Sigma-Aldrich
T1 sequence (P00760 24-246): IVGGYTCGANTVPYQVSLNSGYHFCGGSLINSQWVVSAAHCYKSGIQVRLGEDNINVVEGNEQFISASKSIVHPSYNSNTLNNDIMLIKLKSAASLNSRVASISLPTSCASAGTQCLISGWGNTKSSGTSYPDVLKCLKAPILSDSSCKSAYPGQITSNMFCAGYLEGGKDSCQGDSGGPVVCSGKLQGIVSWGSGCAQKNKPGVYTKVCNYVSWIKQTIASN


Columns and labels:
trypsin = target: T1, trypsin; experiment: Stability of trypsin solutions (TAME substrate, T 70%); type: physicochemical; settings: 100 μg/ml trypsin in 10 mM HEPES, 0.13 M NaCl, pH 7.4, 37° C.
Method: The stabilization of solutions of trypsin in accordance with the invention was tested. The activity of trypsin was determined using tosyl arginine methyl ester (TAME) as substrate and measuring the absorbance change at 247 nm in a spectrophotometer. Solutions containing 100 μg/ml of trypsin (TPCK-treated, Sigma-Aldrich) in 10 mM HEPES and 0.13 M NaCl, pH 7.4, as well as stabilizers as indicated in Table 3 below were incubated at 37° C., and samples were taken out at various time intervals for activity determination.

plasmin = target: T2, plasmin (Homo sapiens, UniProt P00747); experiment: Stability of plasmin solutions (Chromozym TH chromogenic substrate, T 70%); type: physicochemical; settings: 100 μg/ml plasmin in 10 mM HEPES, 0.13 M NaCl, pH 7.4, 37° C.
T2 construct: 100 μg/ml of plasmin (specific activity 3.2 units/mg, Sigma-Aldrich); purchased Sigma-Aldrich
Method: The stabilization of solutions of plasmin in accordance with the invention was tested. The activity of plasmin was determined using chromogenic peptide substrate Chromozym TH (Pentapharm, Switzerland) and measurement of absorbance change at 405 nm in a spectrophotometer. Solutions containing 100 μg/ml of plasmin (specific activity 3.2 units/mg, Sigma-Aldrich) in 10 mM HEPES and 0.13 M NaCl, pH 7.4, as well as stabilizers as indicated in Table 2 below were incubated at 37° C., and samples were taken out at various time intervals for activity determination.

| Molecule | T 70% (trypsin) | T 70% (plasmin) |
| --- | --- | --- |
| trypsin: trypsin, TPCK-treated, Sigma-Aldrich, solution without additives (protein, UniProt P00760 24-246, looked up, TPCK-treated, trypsin, TPCK-treated, Sigma-Aldrich, solution without additives) Serine protease 1: IVGGYTCGANTVPYQVSLNSGYHFCGGSLINSQWVVSAAHCYKSGIQVRLGEDNINVVEGNEQFISASKSIVHPSYNSNTLNNDIMLIKLKSAASLNSRVASISLPTSCASAGTQCLISGWGNTKSSGTSYPDVLKCLKAPILSDSSCKSAYPGQITSNMFCAGYLEGGKDSCQGDSGGPVVCSGKLQGIVSWGSGCAQKNKPGVYTKVCNYVSWIKQTIASN | 0.6 h |  |
| plasmin: plasmin, specific activity 3.2 units/mg, Sigma-Aldrich, solution without additives (protein, UniProt P00747 20-580; P00747 581-810, looked up, Plasmin) Plasmin heavy chain A: EPLDDYVNTQGASLFSVTKKQLGAGSIEECAAKCEEDEEFTCRAFQYHSKEQQCVIMAENRKSSIIIRMRDVVLFEKKVYLSECKTGNGKNYRGTMSKTKNGITCQKWSSTSPHRPRFSPATHPSEGLEENYCRNPDNDPQGPWCYTTDPEKRYDYCDILECEEECMHCSGENYDGKISKTMSGLECQAWDSQSPHAHGYIPSKFPNKNLKKNYCRNPDRELRPWCFTTDPNKRWELCDIPRCTTPPPSSGPTYQCLKGTGENYRGNVAVTVSGHTCQHWSAQTPHTHNRTPENFPCKNLDENYCRNPDGKRAPWCHTTNSQVRWEYCKIPSCDSSPVSTEQLAPTAPPELTPVVQDCYHGDGQSYRGTSSTTTTGKKCQSWSSMTPHRHQKTPENYPNAGLTMNYCRNPDADKGPWCFTTDPSVRWEYCNLKKCSGTEASVVAPPPVVLLPDVETPSEEDCMFGNGKGYRGKRATTVTGTPCQDWAAQEPHRHSIFTPETNPRAGLEKNYCRNPDGDVGGPWCYTTNPRKLYDYCDVPQCAAPSFDCGKPQVEPKKCPGR Plasmin light chain B: VVGGCVAHPHSWPWQVSLRTRFGMHFCGGTLISPEWVLTAAHCLEKSPRPSSYKVILGAHQEVNLEPHVQEIEVSRLFLEPTRKDIALLKLSSPAVITDKVIPACLPSPNYVVADRTECFITGWGETQGTFGAGLLKEAQLPVIENKVCNRYEFLNGRVQSTELCAGHLAGGTDSCQGDSGGPLVCFEKDKYILQGVTSWGLGCARPNKPGVYVRVSRFVTWIEGVMRNN |  | 3 h |
